Experimental data: patent US20250188136A1, “AV3 MUTANT POLYPEPTIDES FOR PEST CONTROL” (Vestaron Corporation, priority 2021, published 2025)
“Also recorded” adds a separate entry of the source. Ends that are not written are not given here.

Assays:
[1] = Stability of Av3b mutants in insect gut extract; assay type: in vitro ADME, Helicoverpa zea; details: H. zea gut extract digestion, room temperature
Method: To test the stability of the Av3b mutants in the gut enzymes of a lepidopteran pest, the gut extract were prepared from Helicoverpa zea (Corn Earworm or “CEW”). Corn Earworm insects were obtained commercially from Benzon Research (Carlisle, PA) as eggs. Hatched larvae were raised on artificial diet until ⅘^th instar (20 mm long) before guts were isolated. Before gut extraction, larvae were anesthetized using CO2. The larva was then pinned on the dissection plate at both the head and the tail. Using dissection scissors, the cuticle was nicked. The dissection scissors were then inserted into the nick and the […] along the insect. The cuticle was then carefully pulled back and pinned open to reveal the digestive track. Using DI water, the insect was thoroughly rinsed to remove hemolymph.
After the insect guts were extracted from the larva, they were spun at 15000 rpm for 5 minutes. The resulting supernatant is the “insect gut extract” that was used to determine peptide stability. Av3b mutant peptide was mixed with the gut extract to […] of 2 μg/μL, and incubated at room temperature. At time points between 0-100 hours, 6 μL of a given sample was mixed with 93 μL dH2O followed by the addition of 1 μL of a 2% trifluoracetic acid solution to stop the reaction. The sample was then analyzed by rpHPLC to determine the peptide loss during the gut extract treatment.

[2] = Thermo-stability at 54° C. in pH 4.0 solution; assay type: physicochemical
Method: A thermo-stability study was performed for Av3b, Av3bM24, Av3bM165, Av3bM103, and Av3bM170 in a pH 4.0 solution at 54° C. for 0, 3, 7, 10, 12, and 14 days, with a caffeine internal control to cancel variation from evaporation. Samples of 1 mL were prepared in 1.5 mL microtube with sodium acetate buffer (NaOAc) at pH 4.0, containing 0.1 μg/μL of peptide, and 0.025 μg/μL of caffeine. The samples were incubated at 54° C. in a dry mixer. At 0, 3, 7, 10, 12, and 14 days, 20 μL of each sample was analyzed via analytic rpHPLC system to evaluate peptide loss. Each sample contained a fixed amount caffeine, which was used to compensate the peptide HPLC UV absorbance peak change due to volume change by evaporation. FIG. 68.

[3] = Stability of purified peptide spiked into Av3b fermentation beer (rpHPLC); assay type: physicochemical
Method: To determine the stability of the new mutants, Av3bM19, Av3bM23, Av3bM24, Av3bM25, Av3bM27, and Av3bM28 were purified and incubated in Av3b fermentation beer. The mutants were purified by cation-exchange chromatography using a GE SP-Sephadex C-25 column. The column was first calibrated with 30 mM sodium citrate buffer at pH 3.0. Then, the culture supernatant containing the secreted mutant peptide was loaded into the column to let the mutant peptide bind to the resin. The column was then washed with 30 mM sodium citrate buffer, pH 3.0, followed by washing with 30 mM sodium acetate, pH 4.0. Next, the bound mutant peptide was eluted by 1 M or 2 M NaCl with 30 mM sodium acetate, pH 4.0. The elution was then concentrated and buffer-exchanged to 30 mM sodium acetate, pH 4.0 using a 1 kD cutoff spin concentrator.
After purification, each of the mutants, Av3bM19, Av3bM23, Av3bM24, Av3bM25, Av3bM27, and Av3bM28, were evaluated for stability by spiking them into Av3b strain fermentation beer at pH 6.5. As a negative control, Av3b was evaluated in a pH 4.0 buffer. As a positive control, purified Av3b was evaluated by spiking into the same Av3b fermentation beer at pH 6.5. All stability experiments were performed at room temperature. […] The amount of peptide remaining relative to the beginning was determined by normalizing the peak area at different time to the one at 0 hour for each treatment. The degradation trend is visualized by the bar graph of the relative remaining peptide amount trend.

Helicoverpa zea = experiment: Lepidoptera injection assay, corn earworm (CEW); assay type: in vivo
Method: (§1) An injection assay was performed on Helicoverpa zea (corn earworm or “CEW”) and Spodoptera frugiperda (fall armyworm or “FAW”). Injections comprised a given Av3b mutant peptide combined with water to arrive at the planned dose. The Av3b mutants included Av3bM24; Av3bM165; Av3bM103; and Av3bM170. Av3b was used as a control.
(§2) Insects were reared on an artificial diet prepared from General Purpose Lepidoptera diet (Frontier Scientific, Newark, DE 19713, product No. F9772) according to the manufacturer's instructions. To perform the insect injection bioassay, 5 mL of hot diet was dispensed into the well of a rearing tray (Bio-Service Inc., Bio-RT-32), with 8 wells per injection treatment. The hot diet was then allowed to cool and solidify. Next, third instar larva were incubated on ice in order to immobilize them. Injections were prepared on a hand-microapplicator with injection solution (>100 μL) in 1-cc all-glass syringe having a 30 gauge straight needle. Air bubbles were removed from the syringe, and the syringe was set it up on the microapplicator. Injection volume was adjusted in the microapplicator at 2 μL.
(§3) To inject the larva, the insects were picked up and positioned close to the injection needle. The needle was allowed to penetrate the cuticle of the third pro-leg of the larva. The injection knob of the microapplicator was then rotated to inject a 2 μL solution into hemolymph from the third pro-leg. After injection the larva maintained on the needle for a few seconds to make sure the injected solution was absorbed. Then, the larva were gently removed from the needle and placed into the wells of prepared tray, along with 5 mL of solidified diet per well. Finally, the tray was sealed with vent covers.
(§4) Injected larva were incubated at 28° C. in an insect incubator, and scored at 24-hours post-injection based on their condition. Insect conditions were categorized as follows: alive (walking, eating, normal behavior); affected (showing toxic symptoms, such as tremors, writhing, unbalanced gait, or a combination thereof), knockdown (paralyzed albeit able to move with gentle poke); and dead (unmoving, discoloration, or a combination thereof).

Spodoptera frugiperda = experiment: Lepidoptera injection assay, fall armyworm (FAW); assay type: in vivo; details: third instar larva, 2 μL injection, scored at 24-hours post-injection
Method: as §1, §2, §3, §4

KSCCPCYWGGCPWGQNCYPEGCDGPK (ends and bridges not checked; cysteine pairing not given here) [Av3bM24]
resistance to degradation in gut extract [1]: most resistant to degradation
peptide change on day 14 ([2]; pH 4.0, 54° C., HPLC peak area, + mass increase, − mass loss): −29.5%
thermo-stability at 54° C. ([2]; pH 4.0 solution, up to 14 days): not thermo-stable
half-degradation time ([3]; Av3b production fermentation beer pH 6.5, room temperature (Example 11, FIG. 37)): 652 h
peptide remaining ([3]; fermentation beer pH 6.5, room temperature, 248 hours, HPLC peak area relative to starting amount): 84%
resistance to fermentation beer protease cleavage compared to Av3b ([3]; spiked into Av3b fermentation beer pH 6.5, room temperature): greater resistance to yeast fermentation beer protease cleavage; also recorded: improved resistance to fermentation beer cleavage; also recorded: resist the degradation in Av3b fermentation beer
knock-down effects compared to Av3b (Helicoverpa zea; CEW and FAW injection, KD50): comparable knock-down effects to Av3b
KD50 CEW (Helicoverpa zea; third instar larva, 2 μL injection, scored at 24-hours post-injection): 428 ± 131 (N = 4) pmol/g
KD50 FAW (Spodoptera frugiperda): 949 pmol/g
